Results reported in the supplement of paper PMC9170038.

System: MS2 coat protein
Experiment: apparent KD of MS2 coat protein; designed switch direction (-1 OFF switch, 1 ON switch): -1; higher = weaker reporter binding
Method in brief: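 The buffer was Tris-HCl pH 7.5 with KCl, MgCl2, BSA, DTT, tRNA and Tween-20. In it, SNAP-549-labelled MS2 coat protein was titrated in doubling steps from 0.7 or 1.5 nM to 3 µM over chip-bound RNA switches transcribed by stalled E. coli RNA polymerase on Illumina chips. Apparent KD is the per-design median over clusters of curve fits to normalised fluorescence.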

[1] = Eterna round: R95, input ligand: FMN 200 uM
[2] = Eterna round: R95, input ligand: microRNA oligo, concentration not stated
[3] = Eterna round: R95, input ligand: none
[4] = input ligand: microRNA oligo, concentration not stated

| Sequence | apparent KD of MS2 coat protein [1] [nM] | apparent KD of MS2 coat protein [2] [nM] | apparent KD of MS2 coat protein [3] [nM] | apparent KD of MS2 coat protein (input ligand: FMN 200 uM) [nM] | apparent KD of MS2 coat protein [4] [nM] | apparent KD of MS2 coat protein (input ligand: none) [nM] |
| --- | --- | --- | --- | --- | --- | --- |
| UAUUAACAAGUAAGAUCCCACAUGAGGAUCACCCAUGUGCUCGUCUUAUAAGGUACUGUGACGAAAGUCACGGUACC [Sensor 3, v1 - 87] (puzzle: Sensor v3, turn-off variant 1) | 16.9 | 953 | 13 |  |  |  |
| UUUUACUUAGGAUAUACAUUUUUUUAUUUAUUUAUAAUAUUACAUGAGGAUCACCCAUGUAGAAGGGAGAUUUU [My Design] (Eterna round: R96, puzzle: Exclusion 2) |  |  |  | 76.9 | 64.3 | 72.3 |
| GUAAAACAUGUAGGAUAUGCGUGGCGAAGCUAUGCAGAAGGACAUGAGGAUCACCCAUGUUAAAGCGUCUGCGUACAGAUGCAA [Mat - Exclusion NG 1 - Mod of JL - D94] (Eterna round: R96, puzzle: Exclusion NG 1) |  |  |  | 279 | 19.8 | 29.2 |
| CGCCUGGGAGGAUAUCCAAUAUAUGACAUGAGGAUCACCCAUGUUUCCACUCGUACCUCCGGAGAAGGCCCGGCGU [Ex5 #31] (Eterna round: R97, puzzle: Exclusion 5) |  |  |  | 21.7 |  | 26.7 |
| CGUUCGCGAGGAUAUGCAUUCGAGUCCACUACGUGUCUGGGACUUGAGGAUCACCCAAGUAGAAGGCGCCUCAA [salish99_ex2_r4_651] (Eterna round: R97, puzzle: Exclusion 2) |  |  |  | 171 |  | 230 |
| AGCUGUGGCCGAGGAUAUCACAUGAGGAUCACCCAUGUACAUGAUUAGGCCUGGUAACAGGCUCAUGAGAAGGCGGUCUCAGCA [Eli eng2 - 013] (Eterna round: R96, puzzle: Exclusion NG 2) |  |  |  | 16.1 | 16.4 | 22.4 |
| CAGCUGAAAGUGAGGAUAUCUAGAGCUGCGGCUCUAGAGAAGGCACAUGAGGAUCACCCAUGUCUCAACAGCUG [BmEx4/1-A3] (Eterna round: R97, puzzle: Brourd's mod of Exclusion 4) |  |  |  | 51.9 |  | 18.1 |
| AUAUAGAUAGUCAGGAUAUGCUAGUGAUAACAGUAGUAGAAGGGACAUGAGGAUCACCCAUGUAGAUACUGCAC [Brourd's EX4 #3] (Eterna round: R97, puzzle: Brourd's mod of Exclusion 4) |  |  |  | 19.6 |  | 19.3 |
| AAGCCUCAGGUUAGGAUAUACGCCUGGCCGAAGGAGUAGAAGGGACAUGAGGAUCACCCAUGUGGGUUCAAAAG [Atanvege] (puzzle: Brourd's mod of Exclusion 4) | 52.5 | 43 | 44.9 |  |  |  |
| CCAGCGAGUGUGAGGAUAUGCUGGUCCUUGGAUCAGCAGAAGGCACAUGAGGAUCACCCAUGUGAAAACGUUGG [JL bmx4 3.30] (puzzle: Brourd's mod of Exclusion 4) |  | 21.8 |  |  |  |  |
| GGUUGGCGAGGAUAUACAUGAGGAUCACCCAUGUGAGAGAGAAAAGUGAGAACGAAAAGUAGAAGGCGCUGACG [salish99_ex3_r3_061] (puzzle: Exclusion 3) | 53.5 | 65.6 | 96.2 |  |  |  |
| AAAUCGGUGGAGGAUAUUGUACAGGAAACGGUGCGAGAAGGUUACACAUGAGGAUCACCCAUGUUAAAUAGCGA [EX6 #56] (Eterna round: R97, puzzle: Exclusion 6) |  |  |  | 25.2 |  | 22.1 |
| UUUUGAAAGUGAGGAUAUGACAUGAGGAUCACCCAUGUAAAGGGAGUUGACUAUAUAGCAAGAUAUCAGAAGGCACAAAUGUUU [JR_ExcNG2_Sub003] (Eterna round: R96, puzzle: Exclusion NG 2) |  |  |  | 367 | 341 | 645 |
| ACUUGUUGUCCUUGAUUUUACAUGAGGAUCACCCAUGUUAUUUUGAUUAUGAUGUGUAAGUUUGUUGCUCGUUUUAU [JR_STOV1_Sub067] (Eterna round: R97, puzzle: Sensor, turn-off variant 1) |  |  |  | 61.9 |  | 67.4 |
| AGAAGUGCCGAGGAUAUCCAGGCAAUCUCGUUCGGAGAAGGCGGCACUUGAGGAUCACCCAAGUGCUCCAAAAG [Essoatxe] (Eterna round: R97, puzzle: Exclusion 6) |  |  |  | 59.2 |  | 18.9 |
| GCCGUAAAUGUGAGGAUAUACCUAUGGAUACAUAGGUAGAAGGCACAUGAGGAUCACCCAUGUUCCAAAUCGGC [Eli bmx4 4.07] (Eterna round: R97, puzzle: Brourd's mod of Exclusion 4) |  |  |  | 47.9 |  | 132 |
| CGUGACUAAGGAUAUACAUGAGGAUCACCCAUGUGAUUCAAGAUUUUCGACUGGAGAGGUAGAAGGUGGAUGCC [Eternabot (L1) Solution 99] (Eterna round: R97, puzzle: Exclusion 3) |  |  |  | 63.3 |  | 94.4 |
| AAGAAACAUGAGGAUCACCCAUGUGAGGAUAUGACGAAGAAAAGAAAAGAAAGAAGACUCAGAAGGCACAAAGG [salish99-ex1_r3_076] (puzzle: Exclusion 1) | 48 | 26.7 | 43.4 |  |  |  |
| UAAUAUCUGCAGGAUAUCGGUGUAGCACGCGUAUGAGAAGGGCAGACAUGAGGAUCACCCAUGUAUAGGGUCCG [BotMod 1 - Jieux - Exclusion 6] (Eterna round: R97, puzzle: Exclusion 6) |  |  |  | 246 |  | 49.4 |
| GGUACUCAAAGAGUACCAAUACGAACAUGAGGAUCACCCAUGUAGGAUAUGCUACUCAAAGAGUAGCAGAAGGAUAUGAACCUU [Far Half Aptamer v9] (Eterna round: R96, puzzle: Exclusion NG 3) |  |  |  | 22.5 | 15.5 | 23.8 |
| GAUCAUGCAGGAUAUACAGUUUCCAUGAAAACAUGGUCCUCACAUGAGGAUCACCCAUGUAGAAGGGCAUGAUC [Omei Ex2 A28] (Eterna round: R97, puzzle: Exclusion 2) |  |  |  | 151 |  | 1490 |
| CUUUUGUGAGGAUAUCAGUAGUAAAUAAAUAAAUUAACUACUGAGAAGGCACAUGAGGAUCACCCAUGUUCCUU [Mat - Exclusion 4 - Mod of Salish - D65] (puzzle: Exclusion 4) |  | 13.7 |  |  |  |  |
| CGCAAUGGAGGAUAUACAUGAGGAUCACCCAUGUGGUCCUUGAGAUUCCAAAAGUCAAGUAGAAGGUCAGCGGC [Eternabot (L1) Solution 45] (Eterna round: R97, puzzle: Exclusion 3) |  |  |  | 1210 |  | 1600 |
| CGCCUACAUGAGGAUCACCCAUGUGAGGAUAUCCUGCGAGGAUCAAAAGAUCCUCGUGGGAGAAGGCGCCUGGA [Omei Ex1 B6] (Eterna round: R97, puzzle: Exclusion 1) |  |  |  | 37.6 |  | 13.1 |
| AACUAGUCAGGAUAUACAUGAGGAUCACCCAUGUAAACUUUUAGUUUAAUUUGAAUGUGUAGAAGGGACAUAAA [Ex3 #43] (Eterna round: R97, puzzle: Exclusion 3) |  |  |  | 20.7 |  | 20.3 |
